This series can be described thus: SPR membrane binding to POPC/POPS/PI(4,5)P2 vesicles. An excerpt:
It has been generally thought that Smad2 and Smad3 are targeted to the activated TGF-β signaling complex by direct interaction with TβRI ([1], [2]) or via SARA ([7]). However, it has been shown that many cytosolic proteins that are targeted to membrane proteins or membrane-anchored signaling complexes have affinity for membrane lipids ([14]), phosphoinositides (PtdInsPs) in particular, and that their membrane recruitment is mediated by coincident lipid–protein and protein–protein interactions ([15], [16]). For most of these proteins, their PtdInsP specificity directs their membrane targeting behaviors: e.g., PI(4,5)P2-specific proteins are recruited to PM where the highest concentration of PI(4,5)P2 is found, whereas PI(3)P-specific proteins are targeted to PI(3)P-rich EEs ([17], [18]). To resolve uncertainty about the functional location of the activated TGF-β signaling complex, we thus explored the possibility that lipid-binding activity of Smad2 may play a role in specific targeting of Smad2 to the active TGF-β receptor complex either at the PM or at EEs. Lipid-binding activity of Smad proteins has not been reported to date. We thus measured the binding of bacterially expressed Smad2 to large unilamellar vesicles (LUVs) containing various lipids by surface plasmon resonance (SPR) analysis ([19], [20]). Lipid selectivity determined by SPR analysis is typically reported as the relative resonance unit (RU) values for different lipids at a given protein concentration ([21], [22]). Although simple and intuitive, this type of analysis can sometimes yield misleading and erroneous results because some proteins show widely different RU values when bound to different lipid surfaces. Thus, a more reliable parameter that represents the fraction of the membrane bound protein molecules at a given protein concentration would be a normalized value of RU/RUmax where RUmax indicates the maximal RU value when a given lipid surface is saturated with the protein molecules. We thus estimated RUmax for different lipid species by employing the highest protein concentration experimentally feasible (e.g., 1 μM) and determined RU/RUmax for different lipids at the protein concentration that allows robust comparison (e.g., 100 nM). Once the lipid selectivity has been determined by this semiquantitative approach, we then rigorously determined and compared Kd values for selected lipids for more accurate quantitative determination of lipid selectivity.
Figure 1 Membrane-binding properties of Smad2 FL protein and MH2 domain determined by SPR analysis.A, PtdInsP selectivity of Smad2-FL determined using POPC/POPS/PtdInsP (77:20:3 in mole ratio) LUVs coated on the L1 sensor chip. The protein concentration was 100 nM. PIP3 indicates PI(3,4,5)P3. B, determination of Kd for binding of Smad2 FL to different LUVs. The protein concentration was varied from 0 to 500 nM. C, PI(4,5)P2 concentration dependence of membrane binding of Smad2-FL determined using POPC/POPS/PI(4,5)P2 (77-x:20:x, x = 0–5 mol%) LUVs. The protein concentration was 100 nM. D, PtdInsP selectivity of the Smad2 MH2 domain determined using POPC/POPS/PtdInsP (77:20:3 in mole ratio) LUVs. The protein concentration was 100 nM. Normalized RU values (RU/RUmax) were used for all figures but (C) for more accurate determination of PtdInsP selectivity. RUmax values determined for different vesicles at 1 μM Smad2 were: 280 ± 20 for POPC/POPS/PI(4,5)P2 (77:20:3), 370 ± 10 for POPC/POPS/PI(3,4)P2 (77:20:3), 400 ± 15 for POPC/POPS/PI(3,4,5)P3 (or PIP3) (77:20:3), 400 ± 20 for POPC/POPS/PI(3)P (77:20:3), and 380 ± 20 for POPC/POPS (80:20). Only the association phases of the sensorgrams are shown and used for further analysis. Each set of sensorgrams shown in A and D are representatives of >5 independent measurements. Data points shown in B and C are the average ±S.D. values from triplicate measurements. […]

B1: Smad2 WT: bacterially expressed full-length Smad2 wild-type (protein)
chain: MSSILPFTPPVVKRLLGWKKSAGGSGGAGGGEQNGQEEKWCEKAVKSLVKKLKKTGRLDELEKAITTQNCNTKCVTIPSTCSEIWGLSTANTVDQWDTTGLYSFSEQTRSLDGRLQVSHRKGLPHVIYCRLWRWPDLHSHHELKAIENCEYAFNLKKDEVCVNPYHYQRVETPVLPPVLVPRHTEILTELPPLDDYTHSIPENTNFPAGIEPQSNYIPETPPPGYISEDGETSDQQLNQSMDTGSPAELSPTTLSPVNHSLDLQPVTYSEPAFWCSIAYYELNQRVGETFHASQPSLTVDGFTDPSNSERFCLGLLSNVNRNATVEMTRRHIGRGVRLYYIGGEVFAECLSDSAIFVQSPNCNQRYGWHPATVCKIPPGCNLKIFNNQEFAALLAQSVNQGFEAVYQLTRMCTIRMSFVKGWGAEYRRQTVTSTPCWIELHLNGPLQWLDKVLTQMGSPSVRCSSMS
modifications: left off: His6, N-terminal, state not stated
notes: bacterially expressed full-length Smad2 wild-type
B1: the RUmax (POPC/POPS/PI(4,5)P2 (77:20:3), 1 μM Smad2) came out at 280 ± 20. Also, where the note is “SPR, Kd comparison”, the “affinity for PI(4,5)P2-containing vesicles relative to PI(3)P-containing ones” value was “twofold higher affinity” and the “increase in membrane affinity by 3 mol% PI(4,5)P2 over POPC/POPS (80:20) vesicles” value came to 5.6 fold. For the same molecule, the Kd (SPR, L1 chip, 23 °C, 20 mM Tris, pH 7.4, 0.16 M NaCl, POPC/POPS/PI(4,5)P2 (77:20:3), average ±S.D., n = 3, read-out: Kd for lipid binding, PC/PS/PI(4,5)P2) was 100 ± 20 nM. Besides, the “PI(4,5)P2 concentration dependence of membrane binding” value (SPR, POPC/POPS/PI(4,5)P2 (77-x:20:x, x = 0–5 mol%), 100 nM protein) is listed as “dependent on the PI(4,5)P2 concentration”.
